Results from patent US20210388110A1 (published 2021).

B1: H0610-G1dh/none-Hi-Kn010G3/L0117-k0 (antibody, human IgG1, kappa)
heavy: not shown
chain: EPKSSDKTHTCPPCPAPELLGGPSVFLFPPKPKDTLMISRTPEVTCVVVDVSHEDPEVKFNWYVDGVEVHNAKTKPREEQYNSTYRVVSVLTVLHQDWLNGKEYKCKVSNKALPAPIEKTISKAKGQPREPQVCTLPPSRDELTKNQVSLWCLVKGFYPSDIAVEWESNGQPENNYKTTPPVLDSDGSFFLYSKLTVDKSRWQQGNVFSCSVMHEALHNRYTQKSLSLSP
light: DIVMTQSPLSLPVTPGEPASISCRSSQSLVHSNRNTYLHWYQQKPGQAPRLLIYKVSNRASGVPDRFSGSGSGTDFTLKISRVEAEDVGVYYCGQGTQVPYTFGQGTKLEIKRTVAAPSVFIFPPSDEQLKSGTASVVCLLNNFYPREAKVQWKVDNALQSGNSQESVTEQDSKDSTYSLSSTLTLSKADYEKHKVYACEVTHQGLSSPVTKSFNRGEC
notes: single-arm antibody
B2: H0610-G1dh/none-Hi-Kn010G3/L0123-k0 (antibody, human IgG1, kappa)
heavy: not shown
chain: EPKSSDKTHTCPPCPAPELLGGPSVFLFPPKPKDTLMISRTPEVTCVVVDVSHEDPEVKFNWYVDGVEVHNAKTKPREEQYNSTYRVVSVLTVLHQDWLNGKEYKCKVSNKALPAPIEKTISKAKGQPREPQVCTLPPSRDELTKNQVSLWCLVKGFYPSDIAVEWESNGQPENNYKTTPPVLDSDGSFFLYSKLTVDKSRWQQGNVFSCSVMHEALHNRYTQKSLSLSP
light: DIVMTQSPLSLPVTPGEPASISCRSSQSLVHSNRNTYLHWYQQKPGQAPRLLIYKVSNRKSGVPDRFSGSGSGTDFTLKISRVEAEDVGVYYCGQGTQVPYTFGQGTKLEIKRTVAAPSVFIFPPSDEQLKSGTASVVCLLNNFYPREAKVQWKVDNALQSGNSQESVTEQDSKDSTYSLSSTLTLSKADYEKHKVYACEVTHQGLSSPVTKSFNRGEC
notes: single-arm antibody
B3: H0610-G1dh/none-Hi-Kn010G3/L0126-k0 (antibody, human IgG1, kappa)
heavy: not shown
chain: EPKSSDKTHTCPPCPAPELLGGPSVFLFPPKPKDTLMISRTPEVTCVVVDVSHEDPEVKFNWYVDGVEVHNAKTKPREEQYNSTYRVVSVLTVLHQDWLNGKEYKCKVSNKALPAPIEKTISKAKGQPREPQVCTLPPSRDELTKNQVSLWCLVKGFYPSDIAVEWESNGQPENNYKTTPPVLDSDGSFFLYSKLTVDKSRWQQGNVFSCSVMHEALHNRYTQKSLSLSP
light: DIVMTQSPLSLPVTPGEPASISCRSSQSLVHSNRNTYLHWYQQKPGQAPRLLIYKVSNRNSGVPDRFSGSGSGTDFTLKISRVEAEDVGVYYCGQGTQVPYTFGQGTKLEIKRTVAAPSVFIFPPSDEQLKSGTASVVCLLNNFYPREAKVQWKVDNALQSGNSQESVTEQDSKDSTYSLSSTLTLSKADYEKHKVYACEVTHQGLSSPVTKSFNRGEC
notes: single-arm antibody
B4: H0610-G1dh/none-Hi-Kn010G3/L0129-k0 (antibody, human IgG1, kappa)
heavy: not shown
chain: EPKSSDKTHTCPPCPAPELLGGPSVFLFPPKPKDTLMISRTPEVTCVVVDVSHEDPEVKFNWYVDGVEVHNAKTKPREEQYNSTYRVVSVLTVLHQDWLNGKEYKCKVSNKALPAPIEKTISKAKGQPREPQVCTLPPSRDELTKNQVSLWCLVKGFYPSDIAVEWESNGQPENNYKTTPPVLDSDGSFFLYSKLTVDKSRWQQGNVFSCSVMHEALHNRYTQKSLSLSP
light: DIVMTQSPLSLPVTPGEPASISCRSSQSLVHSNRNTYLHWYQQKPGQAPRLLIYKVSNRRSGVPDRFSGSGSGTDFTLKISRVEAEDVGVYYCGQGTQVPYTFGQGTKLEIKRTVAAPSVFIFPPSDEQLKSGTASVVCLLNNFYPREAKVQWKVDNALQSGNSQESVTEQDSKDSTYSLSSTLTLSKADYEKHKVYACEVTHQGLSSPVTKSFNRGEC
notes: single-arm antibody
B5: H0610-G1dh/none-Hi-Kn010G3/L0132-k0 (antibody, human IgG1, kappa)
heavy: not shown
chain: EPKSSDKTHTCPPCPAPELLGGPSVFLFPPKPKDTLMISRTPEVTCVVVDVSHEDPEVKFNWYVDGVEVHNAKTKPREEQYNSTYRVVSVLTVLHQDWLNGKEYKCKVSNKALPAPIEKTISKAKGQPREPQVCTLPPSRDELTKNQVSLWCLVKGFYPSDIAVEWESNGQPENNYKTTPPVLDSDGSFFLYSKLTVDKSRWQQGNVFSCSVMHEALHNRYTQKSLSLSP
light: DIVMTQSPLSLPVTPGEPASISCRSSQSLVHSNRNTYLHWYQQKPGQAPRLLIYKVSNRVSGVPDRFSGSGSGTDFTLKISRVEAEDVGVYYCGQGTQVPYTFGQGTKLEIKRTVAAPSVFIFPPSDEQLKSGTASVVCLLNNFYPREAKVQWKVDNALQSGNSQESVTEQDSKDSTYSLSSTLTLSKADYEKHKVYACEVTHQGLSSPVTKSFNRGEC
notes: single-arm antibody
B6: H0610-G1dh/none-Hi-Kn010G3/L0136-k0 (antibody, human IgG1, kappa)
heavy: not shown
chain: EPKSSDKTHTCPPCPAPELLGGPSVFLFPPKPKDTLMISRTPEVTCVVVDVSHEDPEVKFNWYVDGVEVHNAKTKPREEQYNSTYRVVSVLTVLHQDWLNGKEYKCKVSNKALPAPIEKTISKAKGQPREPQVCTLPPSRDELTKNQVSLWCLVKGFYPSDIAVEWESNGQPENNYKTTPPVLDSDGSFFLYSKLTVDKSRWQQGNVFSCSVMHEALHNRYTQKSLSLSP
light: DIVMTQSPLSLPVTPGEPASISCRSSQSLVHSNRNTYLHWYQQKPGQAPRLLIYKVSNRFFGVPDRFSGSGSGTDFTLKISRVEAEDVGVYYCGQGTQVPYTFGQGTKLEIKRTVAAPSVFIFPPSDEQLKSGTASVVCLLNNFYPREAKVQWKVDNALQSGNSQESVTEQDSKDSTYSLSSTLTLSKADYEKHKVYACEVTHQGLSSPVTKSFNRGEC
notes: single-arm antibody
B7: H0610-G1dh/none-Hi-Kn010G3/L0138-k0 (antibody, human IgG1, kappa)
heavy: not shown
chain: EPKSSDKTHTCPPCPAPELLGGPSVFLFPPKPKDTLMISRTPEVTCVVVDVSHEDPEVKFNWYVDGVEVHNAKTKPREEQYNSTYRVVSVLTVLHQDWLNGKEYKCKVSNKALPAPIEKTISKAKGQPREPQVCTLPPSRDELTKNQVSLWCLVKGFYPSDIAVEWESNGQPENNYKTTPPVLDSDGSFFLYSKLTVDKSRWQQGNVFSCSVMHEALHNRYTQKSLSLSP
light: DIVMTQSPLSLPVTPGEPASISCRSSQSLVHSNRNTYLHWYQQKPGQAPRLLIYKVSNRFHGVPDRFSGSGSGTDFTLKISRVEAEDVGVYYCGQGTQVPYTFGQGTKLEIKRTVAAPSVFIFPPSDEQLKSGTASVVCLLNNFYPREAKVQWKVDNALQSGNSQESVTEQDSKDSTYSLSSTLTLSKADYEKHKVYACEVTHQGLSSPVTKSFNRGEC
notes: single-arm antibody
B8: H0610-G1dh/none-Hi-Kn010G3/L0139-k0 (antibody, human IgG1, kappa)
heavy: not shown
chain: EPKSSDKTHTCPPCPAPELLGGPSVFLFPPKPKDTLMISRTPEVTCVVVDVSHEDPEVKFNWYVDGVEVHNAKTKPREEQYNSTYRVVSVLTVLHQDWLNGKEYKCKVSNKALPAPIEKTISKAKGQPREPQVCTLPPSRDELTKNQVSLWCLVKGFYPSDIAVEWESNGQPENNYKTTPPVLDSDGSFFLYSKLTVDKSRWQQGNVFSCSVMHEALHNRYTQKSLSLSP
light: DIVMTQSPLSLPVTPGEPASISCRSSQSLVHSNRNTYLHWYQQKPGQAPRLLIYKVSNRFIGVPDRFSGSGSGTDFTLKISRVEAEDVGVYYCGQGTQVPYTFGQGTKLEIKRTVAAPSVFIFPPSDEQLKSGTASVVCLLNNFYPREAKVQWKVDNALQSGNSQESVTEQDSKDSTYSLSSTLTLSKADYEKHKVYACEVTHQGLSSPVTKSFNRGEC
notes: single-arm antibody
B9: H0610-G1dh/none-Hi-Kn010G3/L0144-k0 (antibody, human IgG1, kappa)
heavy: not shown
chain: EPKSSDKTHTCPPCPAPELLGGPSVFLFPPKPKDTLMISRTPEVTCVVVDVSHEDPEVKFNWYVDGVEVHNAKTKPREEQYNSTYRVVSVLTVLHQDWLNGKEYKCKVSNKALPAPIEKTISKAKGQPREPQVCTLPPSRDELTKNQVSLWCLVKGFYPSDIAVEWESNGQPENNYKTTPPVLDSDGSFFLYSKLTVDKSRWQQGNVFSCSVMHEALHNRYTQKSLSLSP
light: DIVMTQSPLSLPVTPGEPASISCRSSQSLVHSNRNTYLHWYQQKPGQAPRLLIYKVSNRFQGVPDRFSGSGSGTDFTLKISRVEAEDVGVYYCGQGTQVPYTFGQGTKLEIKRTVAAPSVFIFPPSDEQLKSGTASVVCLLNNFYPREAKVQWKVDNALQSGNSQESVTEQDSKDSTYSLSSTLTLSKADYEKHKVYACEVTHQGLSSPVTKSFNRGEC
notes: single-arm antibody
B10: H0610-G1dh/none-Hi-Kn010G3/L0147-k0 (antibody, human IgG1, kappa)
heavy: not shown
chain: EPKSSDKTHTCPPCPAPELLGGPSVFLFPPKPKDTLMISRTPEVTCVVVDVSHEDPEVKFNWYVDGVEVHNAKTKPREEQYNSTYRVVSVLTVLHQDWLNGKEYKCKVSNKALPAPIEKTISKAKGQPREPQVCTLPPSRDELTKNQVSLWCLVKGFYPSDIAVEWESNGQPENNYKTTPPVLDSDGSFFLYSKLTVDKSRWQQGNVFSCSVMHEALHNRYTQKSLSLSP
light: DIVMTQSPLSLPVTPGEPASISCRSSQSLVHSNRNTYLHWYQQKPGQAPRLLIYKVSNRFVGVPDRFSGSGSGTDFTLKISRVEAEDVGVYYCGQGTQVPYTFGQGTKLEIKRTVAAPSVFIFPPSDEQLKSGTASVVCLLNNFYPREAKVQWKVDNALQSGNSQESVTEQDSKDSTYSLSSTLTLSKADYEKHKVYACEVTHQGLSSPVTKSFNRGEC
notes: single-arm antibody
B11: H0610-G1dh/none-Hi-Kn010G3/L0180-k0 (antibody, human IgG1, kappa)
heavy: not shown
chain: EPKSSDKTHTCPPCPAPELLGGPSVFLFPPKPKDTLMISRTPEVTCVVVDVSHEDPEVKFNWYVDGVEVHNAKTKPREEQYNSTYRVVSVLTVLHQDWLNGKEYKCKVSNKALPAPIEKTISKAKGQPREPQVCTLPPSRDELTKNQVSLWCLVKGFYPSDIAVEWESNGQPENNYKTTPPVLDSDGSFFLYSKLTVDKSRWQQGNVFSCSVMHEALHNRYTQKSLSLSP
light: DIVMTQSPLSLPVTPGEPASISCRSSQSLVHSNRNTYLHWYQQKPGQAPRLLIYKVSNRFSGVPDRFSGSGSGTDFTLKISRVEAEDVGVYYCGQGTQNPYTFGQGTKLEIKRTVAAPSVFIFPPSDEQLKSGTASVVCLLNNFYPREAKVQWKVDNALQSGNSQESVTEQDSKDSTYSLSSTLTLSKADYEKHKVYACEVTHQGLSSPVTKSFNRGEC
notes: single-arm antibody
B12: H0610-G1dh/none-Hi-Kn010G3/L0187-k0 (antibody, human IgG1, kappa)
heavy: not shown
chain: EPKSSDKTHTCPPCPAPELLGGPSVFLFPPKPKDTLMISRTPEVTCVVVDVSHEDPEVKFNWYVDGVEVHNAKTKPREEQYNSTYRVVSVLTVLHQDWLNGKEYKCKVSNKALPAPIEKTISKAKGQPREPQVCTLPPSRDELTKNQVSLWCLVKGFYPSDIAVEWESNGQPENNYKTTPPVLDSDGSFFLYSKLTVDKSRWQQGNVFSCSVMHEALHNRYTQKSLSLSP
light: DIVMTQSPLSLPVTPGEPASISCRSSQSLVHSNRNTYLHWYQQKPGQAPRLLIYKVSNRFSGVPDRFSGSGSGTDFTLKISRVEAEDVGVYYCGQGTQYPYTFGQGTKLEIKRTVAAPSVFIFPPSDEQLKSGTASVVCLLNNFYPREAKVQWKVDNALQSGNSQESVTEQDSKDSTYSLSSTLTLSKADYEKHKVYACEVTHQGLSSPVTKSFNRGEC
notes: single-arm antibody
B13: H0610-G1dh/none-Hi-Kn010G3/L0232-k0 (antibody, human IgG1, kappa)
heavy: not shown
chain: EPKSSDKTHTCPPCPAPELLGGPSVFLFPPKPKDTLMISRTPEVTCVVVDVSHEDPEVKFNWYVDGVEVHNAKTKPREEQYNSTYRVVSVLTVLHQDWLNGKEYKCKVSNKALPAPIEKTISKAKGQPREPQVCTLPPSRDELTKNQVSLWCLVKGFYPSDIAVEWESNGQPENNYKTTPPVLDSDGSFFLYSKLTVDKSRWQQGNVFSCSVMHEALHNRYTQKSLSLSP
light: DIVMTQSPLSLPVTPGEPASISCRSSESLVHSNRNTYLHWYQQKPGQAPRLLIYKVSNRFSGVPDRFSGSGSGTDFTLKISRVEAEDVGVYYCGQGTQVPYTFGQGTKLEIKRTVAAPSVFIFPPSDEQLKSGTASVVCLLNNFYPREAKVQWKVDNALQSGNSQESVTEQDSKDSTYSLSSTLTLSKADYEKHKVYACEVTHQGLSSPVTKSFNRGEC
notes: single-arm antibody

Target: T1, soluble human GPC3 (human, UniProt P51654 25-563, limits assumed)
T1 construct: also called glypican 3
Assay: SPR (Biacore), single-arm antibody, soluble human GPC3

T1 sequence (P51654 other isoform, or with tags, fused parts or gaps limits assumed, form in doubt): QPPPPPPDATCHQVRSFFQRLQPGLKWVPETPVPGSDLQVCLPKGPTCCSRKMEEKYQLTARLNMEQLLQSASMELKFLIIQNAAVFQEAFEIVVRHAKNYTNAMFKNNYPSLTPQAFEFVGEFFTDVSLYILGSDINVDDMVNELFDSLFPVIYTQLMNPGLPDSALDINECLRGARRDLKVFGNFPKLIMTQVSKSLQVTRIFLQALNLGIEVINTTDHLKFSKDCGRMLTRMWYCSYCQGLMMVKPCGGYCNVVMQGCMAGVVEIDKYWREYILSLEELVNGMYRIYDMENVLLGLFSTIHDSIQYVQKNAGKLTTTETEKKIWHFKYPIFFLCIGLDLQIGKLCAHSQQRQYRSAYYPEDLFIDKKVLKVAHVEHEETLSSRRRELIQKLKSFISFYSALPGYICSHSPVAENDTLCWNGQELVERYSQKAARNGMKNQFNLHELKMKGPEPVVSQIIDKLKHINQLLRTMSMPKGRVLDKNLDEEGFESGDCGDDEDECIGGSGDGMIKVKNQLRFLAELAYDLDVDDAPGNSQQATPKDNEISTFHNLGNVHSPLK

B1 and B2 are within 1.5-fold of each other in Kd: 4.92 nM for the first, 5.08 nM for the second.

B3 and B4 are within 1.5-fold of each other in Kd: 5.62 nM for the first, 5.28 nM for the second.

B5 and B6 are within 1.5-fold of each other in Kd: 5.65 nM for the first, 5.04 nM for the second.

B7 and B8 are within 1.5-fold of each other in Kd: 5.24 nM for the first, 4.78 nM for the second.

B9 and B10 are within 1.5-fold of each other in Kd: 4.84 nM for the first, 4.38 nM for the second.

B11 and B12 are within 1.5-fold of each other in Kd: 4.48 nM for the first, 4.92 nM for the second.

Binder B13 has a Kd of 5.38 nM.
